Consider five molecules from publication PMC10397247.

Experiment in all cases: two-hybrid library CCNG1;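 note: natural log of median RNA to DNA barcode read ratio; higher means stronger binding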
The target of test [1] is T1, 4H3297-bA.
T1 chain: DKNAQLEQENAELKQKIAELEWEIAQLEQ

Test [2] has as its target T2, 4H2859-bA.
T2 chain: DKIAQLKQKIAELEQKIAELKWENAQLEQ

The target of test [3] is T3, 4H264-bA.
T3 chain: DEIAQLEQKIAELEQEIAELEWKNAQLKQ

Test [4] has as its target T4, 4H949-bA.
T4 chain: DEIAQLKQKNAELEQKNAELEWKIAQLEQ

Test [5] concerns the target T5, O8-bN.
T5 chain: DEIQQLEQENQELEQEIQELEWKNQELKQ

For test [6], the target named is T6, 4H3364-bA.
T6 chain: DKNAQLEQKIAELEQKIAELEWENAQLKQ

Test [7] addresses T7, 4H796-bA.
T7 chain: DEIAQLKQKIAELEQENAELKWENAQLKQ

The target in test [8] is T8, 4H3041-bA.
T8 chain: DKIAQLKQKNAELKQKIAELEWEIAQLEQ

The target of test [9] is T9, 4H932-bA.
T9 chain: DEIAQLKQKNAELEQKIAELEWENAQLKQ

In test [10] the target is T10, 4H2585-bA.
T10 chain: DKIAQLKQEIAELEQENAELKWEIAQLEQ

In test [11] the target is T11, 4H2760-bA.
T11 chain: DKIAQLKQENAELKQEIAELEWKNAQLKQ

For test [12], the target named is T12, 4H2518-bA.
T12 chain: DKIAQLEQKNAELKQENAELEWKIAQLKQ

For test [13], the target named is T13, 4H730-bA.
T13 chain: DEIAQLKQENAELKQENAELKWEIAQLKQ

The target of test [14] is T14, 4H3381-bA.
T14 chain: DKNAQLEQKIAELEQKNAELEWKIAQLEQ

The target in test [15] is T15, 4H56-bA.
T15 chain: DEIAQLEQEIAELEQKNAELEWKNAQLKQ

Test [16] addresses T16, 4H2931-bA.
T16 chain: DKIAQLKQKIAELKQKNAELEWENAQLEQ

Test [17] has as its target T17, P4A.
T17 chain: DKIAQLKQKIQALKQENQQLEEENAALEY

For test [18], the target named is T18, 4H349-bA.
T18 chain: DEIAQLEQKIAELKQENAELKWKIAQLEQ

Test [19] addresses T19, 4H457-bA.
T19 chain: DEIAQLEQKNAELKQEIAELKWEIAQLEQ

The target in test [20] is T20, 4H2586-bA.
T20 chain: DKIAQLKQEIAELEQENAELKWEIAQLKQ

Test [21] concerns the target T21, 4H754-bA.
T21 chain: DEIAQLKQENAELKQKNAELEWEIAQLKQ

The target in test [22] is T22, 4H575-bA.
T22 chain: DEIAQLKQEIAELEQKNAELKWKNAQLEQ

Test [23] has as its target T23, 4H2627-bA.
T23 chain: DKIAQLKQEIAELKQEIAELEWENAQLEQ

Test [24] deals with T24, 4H3926-bA.
T24 chain: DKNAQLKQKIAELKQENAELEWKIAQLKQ

Test [25] addresses T25, 4H4073-bA.
T25 chain: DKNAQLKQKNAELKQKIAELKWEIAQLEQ

Test [26] addresses T26, 4H2673-bA.
T26 chain: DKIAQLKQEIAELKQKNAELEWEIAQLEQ

Test [27] concerns the target T27, 4H2702-bA.
T27 chain: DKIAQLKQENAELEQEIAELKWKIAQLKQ

Test [28] concerns the target T28, 4H953-bA.
T28 chain: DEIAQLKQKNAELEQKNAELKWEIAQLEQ

Test [29] addresses T29, 4H968-bA.
T29 chain: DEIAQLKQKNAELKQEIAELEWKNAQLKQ

In test [30] the target is T30, 4H3427-bA.
T30 chain: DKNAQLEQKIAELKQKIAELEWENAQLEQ

Test [31] has as its target T31, O2-bN.
T31 chain: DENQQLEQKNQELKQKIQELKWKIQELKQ

The target in test [32] is T32, 4H346-bA.
T32 chain: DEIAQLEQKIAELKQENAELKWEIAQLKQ

For test [33], the target named is T33, 4H3010-bA.
T33 chain: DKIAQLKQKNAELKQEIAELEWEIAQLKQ

In test [34] the target is T34, 4H855-bA.
T34 chain: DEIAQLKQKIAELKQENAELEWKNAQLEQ

The target of test [35] is T35, 4H3112-bA.
T35 chain: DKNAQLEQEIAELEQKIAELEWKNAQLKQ

Test [36] addresses T36, 4H918-bA.
T36 chain: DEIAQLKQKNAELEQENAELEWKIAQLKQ

Test [37] has as its target T37, 4H780-bA.
T37 chain: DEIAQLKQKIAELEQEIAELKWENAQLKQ

Test [38] addresses T38, 4H683-bA.
T38 chain: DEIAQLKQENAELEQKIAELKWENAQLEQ

For test [39], the target named is T39, 4H797-bA.
T39 chain: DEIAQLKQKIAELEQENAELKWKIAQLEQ

The target in test [40] is T40, 4H2444-bA.
T40 chain: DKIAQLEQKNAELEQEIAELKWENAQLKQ

For test [41], the target named is T41, 4H492-bA.
T41 chain: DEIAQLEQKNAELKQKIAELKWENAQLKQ

For test [42], the target named is T42, 4H2692-bN.
T42 chain: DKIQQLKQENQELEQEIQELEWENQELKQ

Test [43] addresses T43, 4H2839-bN.
T43 chain: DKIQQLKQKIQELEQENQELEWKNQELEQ

In test [44] the target is T44, 4H40-bN.
T44 chain: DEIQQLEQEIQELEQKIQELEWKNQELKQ

Test [45] addresses T45, O4-bS.
T45 chain: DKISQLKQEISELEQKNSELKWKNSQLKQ

The target in test [46] is T46, 4H2588-bN.
T46 chain: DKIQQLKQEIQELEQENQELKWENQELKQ

For test [47], the target named is T47, 4H3277-bN.
T47 chain: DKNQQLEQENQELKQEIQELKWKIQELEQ

For test [48], the target named is T48, 4H2503-bN.
T48 chain: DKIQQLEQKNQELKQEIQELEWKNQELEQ

Test [49] has as its target T49, 4H319-bN.
T49 chain: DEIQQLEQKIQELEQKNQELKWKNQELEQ

Test [50] has as its target T50, 4H348-bN.
T50 chain: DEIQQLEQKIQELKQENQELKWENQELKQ

Test [51] concerns the target T51, 4H2717-bN.
T51 chain: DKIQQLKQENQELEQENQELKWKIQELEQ

The target of test [52] is T52, 4H3057-bN.
T52 chain: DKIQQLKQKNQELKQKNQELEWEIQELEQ

Test [53] deals with T53, 4H2915-bN.
T53 chain: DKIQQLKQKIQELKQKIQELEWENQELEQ

Test [54] deals with T54, 4H492-bN.
T54 chain: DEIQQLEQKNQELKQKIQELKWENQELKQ

The target in test [55] is T55, 4H477-bN.
T55 chain: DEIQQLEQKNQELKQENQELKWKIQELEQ

For test [56], the target named is T56, 4H741-bN.
T56 chain: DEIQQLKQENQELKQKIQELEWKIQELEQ

In test [57] the target is T57, 4H48-bN.
T57 chain: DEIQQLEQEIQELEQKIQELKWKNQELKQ

For test [58], the target named is T58, 4H491-bN.
T58 chain: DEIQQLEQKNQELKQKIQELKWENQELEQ

Take DKIAQLEQKNAELKQENAELEWKIAQLKQ [4H2518-bA]: the interaction score in test [1] was -0.628; in [2], -0.00645; in test [3], -1; in test [4], -0.976; in [5], -2.05; in [6], -0.361. For the same molecule, the interaction score in [7] is -1.33; in test [8], 0.486; in test [9], -1.08; in test [10], -0.589; in test [11], -0.635; in test [12] it was 0.343. Further, the interaction score was -0.626 in [13]; -0.773 in test [14]; -1.52 in [15]; -0.288 in test [16]; -1.32 in test [17]; -0.372 in test [18].
As for DKIAQLKQEIAELEQENAELKWEIAQLKQ [4H2586-bA], the interaction score in test [19] is 0.765; in test [20], 1.48; in [21] it was -1.06; in test [22], -0.515; in test [23], 0.292; in test [24], 1.9. Further, the interaction score was 0.255 in [25]; 0.53 in test [26]; 0.531 in test [27]; 1.17 in test [28]; -1.91 in test [29]; -0.911 in [30]. The interaction score in [31] was -0.327; in test [32], 0.976; in test [33], 1.28; in test [34] it was 1.54; in test [35], -1; in test [36], -0.499. Also, the interaction score in test [37] was -1.17; in [38], 0.537; in [39] it was 0.763.
Regarding DKIAQLEQKNAELEQEIAELKWENAQLKQ [4H2444-bA], the interaction score in [1] is 0.252; in test [2] it was -0.0526; in [3], 0.179; in [4] it was -0.993; in [6], -0.57; in [40], 1.3. Moreover, the interaction score in test [7] is -0.412; in test [8], 0.922; in test [41], 1.66; in test [9], -1.36; in test [10] it was 0.675; in test [11], 1.15. For the same molecule, the interaction score in test [12] is -0.678; in [13], -0.297; in test [14] it was -0.537; in [15], -1.91; in test [16], 0.114; in test [18] it was -0.457.
For the molecule DKIQQLEQKNQELKQEIQELEWKNQELEQ [4H2503-bN], the interaction score in test [42] was -2.06; in test [43] it was -0.436; in test [44] it was -0.263; in test [45], -1.2; in test [46], 0.453; in test [47] it was 0.0524. The interaction score in test [48] was -0.645; in test [49], -0.708; in test [50] it was 0.419; in [51], -1.42; in test [52] it was -0.657; in test [53], -0.299. Also, the interaction score in test [54] is 0.186; in test [55], -0.639; in test [56], -0.327.
In the case of DEIQQLEQEIQELEQKIQELKWKNQELKQ [4H48-bN], the values for the interaction score in test [57] and in test [58] were 1.04 and -0.799, respectively.
